Source: patent US20210060185

T1: C-His Ana GvpC with calpain cleavage site (engineered Anabaena flos-aquae GvpC, calpain-sensitive)
T1 chain: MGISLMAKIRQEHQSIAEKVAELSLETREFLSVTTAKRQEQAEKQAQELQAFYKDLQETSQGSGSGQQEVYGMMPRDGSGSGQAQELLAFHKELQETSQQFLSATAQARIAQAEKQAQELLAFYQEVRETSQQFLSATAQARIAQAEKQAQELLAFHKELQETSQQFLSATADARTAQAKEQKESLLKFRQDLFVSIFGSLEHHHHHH

T2: WT C-His Ana GvpC
T2 chain: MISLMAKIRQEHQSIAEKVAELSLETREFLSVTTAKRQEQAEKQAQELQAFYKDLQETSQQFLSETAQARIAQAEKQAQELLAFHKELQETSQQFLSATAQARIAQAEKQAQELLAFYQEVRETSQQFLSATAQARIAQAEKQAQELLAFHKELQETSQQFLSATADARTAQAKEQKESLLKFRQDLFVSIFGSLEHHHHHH

T3: C-His Ana GvpC with TEV cleavage site (engineered Anabaena flos-aquae GvpC, TEV-sensitive)
T3 chain: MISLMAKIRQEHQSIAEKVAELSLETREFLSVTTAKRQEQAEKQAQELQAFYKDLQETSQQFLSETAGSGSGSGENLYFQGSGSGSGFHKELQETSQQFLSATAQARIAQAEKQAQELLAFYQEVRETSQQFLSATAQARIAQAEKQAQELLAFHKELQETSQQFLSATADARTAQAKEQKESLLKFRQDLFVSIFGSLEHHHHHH


Tests used:
[1] = molecular target: T1, C-His Ana GvpC with calpain cleavage …
WT C-His Ana GvpC = molecular target: T2, WT C-His Ana GvpC
[2] = molecular target: T3, C-His Ana GvpC with TEV cleavage site …

| Protein | cleavage on Coomassie-stained SDS-PAGE [1] | collapse pressure after exposure to calpain and calcium (FIG. 8B) [1] | hydrostatic collapse pressure (pressurized absorbance spectroscopy) [1] | nonlinear (x-AM) ultrasound contrast [1] | nonlinear contrast to noise ratio with calpain and calcium (FIG. 8G) [1] | cleavage on SDS-PAGE, GV collapse pressure and ultrasound response (WT C-His Ana GvpC) | cleavage on Coomassie-stained SDS-PAGE [2] | hydrostatic collapse pressure midpoint (pressurized absorbance spectroscopy) [2] | nonlinear (x-AM) ultrasound contrast-to-noise ratio enhancement [2] | hydrostatic collapse pressure, nonlinear acoustic contrast and cleavage on SDS-PAGE (WT C-His Ana GvpC) |
| --- | --- | --- | --- | --- | --- | --- | --- | --- | --- | --- |
| calpain-1 from porcine erythrocytes (protein) chain 1: MAEEVITPVYCTGVSAQVQKLRAKELGLGRHENAIKYLGQDYEQLRAHCLQSGSLFRDEAFPPVPQSLGFKELGPNSSKTYGVKWKRPTELFSNPQFIVDGATRTDICQGALGDCWLLAAIASLTLNDTLLHRVVPHGQSFQNGYAGIFHFQLWQFGEWVDVVVDDLLPTKDGKLVFVHSAQGNEFWSALLEKAYAKVNGSYEALSGGSTSEGFEDFTGGVTEWYELRKAPSDLYSIILKALERGSLLGCSIDISSVLDMEAVTFKKLVKGHAYSVTGAKQVNYQGQMVNLIRMRNPWGEVEWTGAWSDGSSEWNGVDPYQRDQLRVRMEDGEFWMSFRDFLREFTRLEICNLTPDALKSQRVRNWNTTLYEGTWRRGSTAGGCRNYPATFWVNPQFKIRLEETDDPEDDYGGRESGCSFVLALMQKHRRRERRFGRDMETIGFAVYEVPPELVGQPVHLKRDFFLANASRARSEQFINLREVSTRFRLPPGEYVVVPSTFEPNKEGDFVLRFFSEKKAGTQELDDQVQAILPDEQVLSEEEIDENFKALFRQLAGEDMEISVRELRTILNRIISKHKDLRTKGFSLESCRSMVNLMDRDGNGKLGLVEFNILWNRIRNYLSIFRKFDLDKSGSMSAYEMRMAIESAGFKLNKKLFELIITRYSEPDLAVDFDNFVCCLVRLETMFRFFKTLDTDLDGVVTFDLFKWLQLTMFA chain 2: MFLVNSFLKGGGGGGGGGGGLGGGLGNVLGGLISGAGGGGGGGGGGGGGGGGGGTAMRILGGVISAISEAAAQYNPEPPPPRTHYSNIEANESEEVRQFRRLFAQLAGDDMEVSATELMNILNKVVTRHPDLKTDGFGIDTCRSMVAVMDSDTTGKLGFEEFKYLWNNIKKWQAIYKQFDVDRSGTIGSSELPGAFEAAGFHLNEHLYSMIIRRYSDEGGNMDFDNFISCLVRLDAMFRAFKSLDKDGTGQIQVNIQEWLQLTMYS | Electrophoretic analysis confirmed cleavage and partial dissociation of the cleaved fragments from the GV surface | ˜290 kPa compared to 336-344 kPa | an approximately 50 kPa decrease in hydrostatic collapse pressure in the presence of the enzyme and its ionic activator | the maximal nonlinear sensor contrast of GVScalp of approximately 7 dB | (+Calp/+Ca^2+) shows a stronger nonlinear ratio (CNR=10.3) | showed no proteolytic cleavage, change in GV collapse pressure or ultrasound response, after incubation with calcium-activated calpain |  |  |  |  |
| recombinant TEV protease (Tobacco etch virus protease) (protein) GESLFKGPRDYNPISSTICHLTNESDGHTTSLYGIGFGPFIITNKHLFRRNNGTLLVQSLHGVFKVKNTTTLQQHLIDGRDMIIIRMPKDFPPFPQKLKFREPQREERICLVTTNFQTKSMSSMVSDTSCTFPSSDGIFWKHWIQTKDGQCGSPLVSTRDGFIVGIHSASNFTNTNNYFTSVPKNFMELLTNQEAQQWVSGWRLNADSVLWGGHKVFMSKPEEPFQPVKEATQLMNELVYSQ |  |  |  |  |  |  | gel electrophoresis of GVSTEV after exposure to active TEV resulted in the appearance of the two cleaved GvpC fragments and a significant reduction in the intact GvpC band | ˜70 kPa reduction in its collapse pressure midpoint upon incubation with the active TEV protease | a maximal contrast-to-noise ratio (CNR) enhancement of ˜7 dB at an applied acoustic pressure of 438 kPa | showed no difference in their hydrostatic collapse pressure or nonlinear acoustic contrast in response to TEV protease (FIGS. 7I-7K), and no wild-type GvpC cleavage was seen upon gel electrophoresis |
